Results as given in paper PMC8596624.

Biological target: UKPV, spike on pseudotyped lentivirus, Alpha (SARS-CoV-2 (B.1.1.7, Alpha)) (UniProt P0DTC2)
Test: dot blot

Sequence: TTCCGGTTAATTTATGCTCTACCCGTCCACCTACCGGAATTTTTTTTTTTTTTTTTTTTTTTTTTTTTTACGGGTTTGGCGTCGGGCCTGGCGGGGGGATAGTGCGGT [DSA1N5 (T30 linker)]
- Kd: 2.3 pM
